This is an account of results in patent publication US9688764B2, “Methods of treating breast cancer by administering anti-human prolactin receptor (PRLR) antibodies” (REGENERON PHARMACEUTICALS, INC., priority 2013, dated 2017).

In general, Kd refers to the equilibrium constant for the complex coming apart. One may read the IC50 as the concentration needed to halve the response being measured. High values mean weaker potency, low ones greater potency.

The target in assay [1] is mfPRLR.mmh (monomeric macaca fascicularis PRLR). Nature of the assay: Surface plasmon resonance (Biacore T200), mAb-capture format. The settings on record: antibody-capture format, analyte mfPRLR.mmh. Format: binding. In a few lines: (§1)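 Rate constants ka and kd were obtained by fitting sensorgrams to a 1:1 model. Test mAbs, as human IgG1 Fc forms, sat on an anti-human Fc surface while soluble PRLR ectodomain protein passed over it, either monomeric (human or cynomolgus .mmh) or dimeric (human mFc fusion).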
In general terms: In SPR one partner is held on a chip, and binding of the other changes the refractive index at the surface.

The target of assay [2] is T1, hPRLR.mmh (soluble monomeric human PRLR) (Homo sapiens, UniProt P16471).
T1 construct: soluble monomeric (hPRLR.mmh); mmh (myc-myc-hexahistidine)
Described as above. Format: binding. Particulars: antibody-capture format, analyte hPRLR.mmh. The procedure, abridged: as §1

The target of assay [3] is T2, hPRLR.mFc (soluble dimeric human PRLR) (Homo sapiens, UniProt P16471).
T2 construct: dimeric (hPRLR.mFc)
The assay is described as above. It is filed as binding. Particulars: antibody-capture format, analyte hPRLR.mFc. In a few lines:
as §1

Assay [4] deals with T3, PRLR-expressing cells (T47D) (Homo sapiens, UniProt P16471).
T3 construct: a native PRLR expressing cell line (T47D); endogenous in cells; host or cells: T47D
T3 sequence (P16471 25-622): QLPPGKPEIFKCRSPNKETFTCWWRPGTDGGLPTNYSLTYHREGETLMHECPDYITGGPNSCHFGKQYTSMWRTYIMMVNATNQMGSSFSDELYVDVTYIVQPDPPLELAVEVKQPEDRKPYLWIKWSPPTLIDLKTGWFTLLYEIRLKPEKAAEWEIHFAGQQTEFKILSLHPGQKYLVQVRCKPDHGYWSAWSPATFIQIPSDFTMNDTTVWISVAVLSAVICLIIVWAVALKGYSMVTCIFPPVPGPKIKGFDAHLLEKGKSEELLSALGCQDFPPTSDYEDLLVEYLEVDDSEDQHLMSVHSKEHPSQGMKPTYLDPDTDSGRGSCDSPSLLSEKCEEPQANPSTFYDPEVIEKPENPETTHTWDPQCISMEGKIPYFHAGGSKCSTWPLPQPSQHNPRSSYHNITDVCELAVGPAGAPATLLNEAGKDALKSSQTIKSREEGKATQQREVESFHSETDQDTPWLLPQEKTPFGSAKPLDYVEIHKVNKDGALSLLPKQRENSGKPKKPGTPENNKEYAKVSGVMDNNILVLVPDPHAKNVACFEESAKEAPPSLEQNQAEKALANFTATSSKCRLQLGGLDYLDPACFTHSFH
Description: Antibody binding and internalization by PRLR-expressing cells (imaging). Format: cell-based. Particulars: [mAb] (0.67 nM); for % Internalization relative to Control I: alexa488 intensity in intracellular vesicles, 1 h at 37° C.; for % Total Binding relative to Control I: whole cell alexa488 intensity at 37° C.

The test system of assay [5] is HEK293/hPRLR/STAT5-Luc cells (human PRLR). Description: STAT5-Luc luciferase reporter assay, blocking of PRL-mediated receptor activation. It is filed as cell-based. The settings on record: for IC50: 5 nM constant PRL, 6 hr at 37° C.; for Percent Blocking at 100 nM Antibody: 5 nM PRL. The procedure, abridged: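 Engineered HEK293 line stably carrying human PRLR and a STAT5-dependent luciferase reporter; antibodies (100 nM to 24 pM) incubated 6 hr at 37° C with 5 nM constant PRL, luminescence read. IC50 from four-parameter fit of 8-point curves; percent blocking at highest antibody dose; agonism without ligand also tested.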

T2 sequence (P16471 with tags, fused parts or gaps): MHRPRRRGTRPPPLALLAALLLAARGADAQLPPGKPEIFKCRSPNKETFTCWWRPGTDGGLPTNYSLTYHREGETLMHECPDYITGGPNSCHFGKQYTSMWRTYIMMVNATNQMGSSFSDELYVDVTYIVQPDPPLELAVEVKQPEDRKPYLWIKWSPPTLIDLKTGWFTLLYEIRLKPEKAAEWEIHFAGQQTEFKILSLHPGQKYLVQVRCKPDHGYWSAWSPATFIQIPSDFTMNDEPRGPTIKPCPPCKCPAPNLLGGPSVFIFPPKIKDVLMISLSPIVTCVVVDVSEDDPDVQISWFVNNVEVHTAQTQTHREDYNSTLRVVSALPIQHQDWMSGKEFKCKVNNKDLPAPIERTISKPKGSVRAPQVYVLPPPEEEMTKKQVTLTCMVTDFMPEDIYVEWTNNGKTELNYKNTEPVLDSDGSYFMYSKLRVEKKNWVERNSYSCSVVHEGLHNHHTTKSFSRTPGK
Chain of mfPRLR.mmh (monomeric macaca fascicularis PRLR) (as listed by the source): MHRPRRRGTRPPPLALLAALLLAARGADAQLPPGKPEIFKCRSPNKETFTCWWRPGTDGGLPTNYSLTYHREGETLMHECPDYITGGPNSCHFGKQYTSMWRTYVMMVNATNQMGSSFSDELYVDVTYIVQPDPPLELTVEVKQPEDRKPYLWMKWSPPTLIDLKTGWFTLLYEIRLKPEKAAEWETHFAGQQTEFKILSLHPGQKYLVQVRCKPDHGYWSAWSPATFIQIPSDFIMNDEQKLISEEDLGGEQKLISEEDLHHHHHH
T1 sequence (P16471 with tags, fused parts or gaps): as the sequence (as listed by the source) above, with V105I, T139A, M154I, T187I, I236T counted along it

B1: H1H6953N: human IgG1 Fc form of H1M6953N; anti-PRLR; HCVR/LCVR SEQ ID NOs 274/282 (antibody, V domains shown)
VH: EVQLLESGGGLVQPGGTLRLSCAASGFTFSAYAMSWVRQAPGKGLEWVSSINVRAGDTYYADSVKGRFTISRDNSKNTLFLLMNSLRAEDTAAYYCAKARYSSNWGFDFWGQGTLVTVSS
VL: DIVMTQSPDSLTVSLGARTTINCQSSQTILHSSNNHNYLAWYQQKPGLPPKLLIYWSSTRESGVPDRFSGSGSGTDFTLTISSLQAEDVAIYYCQQYSNTPYTFGQGTKLEIN
modifications: human IgG1 Fc
For the molecule B1, the Kd in assay [1] (25° C.) was 0.438 nM; in assay [1] (37° C.), 2.71 nM; in assay [2] (25° C.) it was 0.268 nM; in assay [2] (37° C.) it was 1.11 nM; in assay [3] (25° C.) it was 0.067 nM; in assay [3] (37° C.), 0.116 nM. Also, the T½ in assay [1] (25° C.) was 36.3 min; in assay [1] (37° C.) it was 4.5 min; in assay [2] (25° C.) it was 54.5 min; in assay [2] (37° C.) it was 9.4 min; in assay [3] (25° C.), 242.2 min; in assay [3] (37° C.), 68.0 min. Besides, the “% Internalization relative to Control I” value in assay [4] amounted to 153.9%. For the same molecule, the “% Total Binding relative to Control I” value in assay [4] is on record as 164.2%. For the same molecule, half-maximal inhibition in assay [5] (IC50) required 0.105 nM. Besides, in assay [5], the “Percent Blocking at 100 nM Antibody” value stood at 100%.

B2: H1H6801P: anti-PRLR antibody, human IgG1 Fc; HCVR/LCVR SEQ ID NOs 210/218 (antibody, V domains shown)
VH: QVQLQQSGPGLVKPSQTLSLTCVISGDSVSSNTAWNWVRQSPSRGLEWLGRTYYRSKWYNDYAVSVKSRITINPDTSKNQFSLLMNSVTPEDTAVYYCARVVRGLNYFDYWGQGTLVTVSS
VL: DIVMTQSPDSLAVSLGERATINCKSSQSVLYNSNNKNYLAWYQQKPGQPPKLLIYWSSSRESGVPDRFSGSGSGTDFTLTISGLQAEDVAIYYCQQYSTIPYTFGQGTKLEIK
modifications: human IgG1 Fc
In the case of B2, the Kd in assay [1] (25° C.) is 1.88 nM; in assay [1] (37° C.), 10.8 nM; in assay [2] (25° C.), 0.894 nM; in assay [2] (37° C.), 4.63 nM; in assay [3] (25° C.), 0.161 nM; in assay [3] (37° C.) it was 0.279 nM. For the same molecule, the T½ in assay [1] (25° C.) is 9 min; in assay [1] (37° C.), 1 min; in assay [2] (25° C.), 15 min; in assay [2] (37° C.), 3 min; in assay [3] (25° C.), 106 min; in assay [3] (37° C.) it was 52 min. The “% Internalization relative to Control I” value in assay [4] is 148.9%. Besides, in assay [4], the “% Total Binding relative to Control I” value is 155.7%. Besides, in assay [5], the half-maximal inhibitory concentration (IC50) was found to be 0.14 nM. Besides, in assay [5], the “Percent Blocking at 100 nM Antibody” value is given as 100%.

B3: H1H6804P: anti-PRLR antibody, human IgG1 Fc; HCVR/LCVR SEQ ID NOs 242/250 (antibody, V domains shown)
VH: QVTLKESGPVLVKPTQTLSLTCTVSGFSLSDAGMGVSWIRQPPGKALEWLAHIFSNDGKSYSTSLKSRLTISKDTSKRQVVLTMTNMDPVDTATYYCARIRTGTYSLYLDYWGQGTLVTVSS
VL: DIQMTQSPSSLSASVGDRVTITCRASQSINSYLNWYQQKPGKAPKLLLYFASSLQSGVPSRFSGSGSGTDFTLTISSLQPEDFASYYCQESYSTPWTFGQGTKVEIK
modifications: human IgG1 Fc
Regarding B3, the dissociation constant Kd in assay [1] (25° C.) was found to be 1.99 nM; in assay [1] (37° C.), 9.35 nM; in assay [2] (25° C.), 1.4 nM; in assay [2] (37° C.), 6.34 nM; in assay [3] (25° C.), 0.193 nM; in assay [3] (37° C.) it was 0.369 nM. For the same molecule, the T½ in assay [1] (25° C.) is on record as 18 min; in assay [1] (37° C.), 3 min; in assay [2] (25° C.), 18 min; in assay [2] (37° C.) it was 3 min; in assay [3] (25° C.), 133 min; in assay [3] (37° C.) it was 56 min. For the same molecule, the “% Internalization relative to Control I” value in assay [4] was determined as 138.9%. The “% Total Binding relative to Control I” value in assay [4] came out at 149.6%. In assay [5], this molecule showed a half-inhibitory concentration (IC50) of 7.89 nM. The “Percent Blocking at 100 nM Antibody” value in assay [5] was 100%.

B4: H1H6803P: anti-PRLR antibody, human IgG1 Fc; HCVR/LCVR SEQ ID NOs 226/234 (antibody, V domains shown)
VH: EVQLVESGGGVVRPGGSLRLSCAASGFKFDDYGMTWVRHVPGKGLEWVSGINWNGGRTGYTDSVKGRFTISRDNAKNSLYLQMNSLRAEDTALYHCAGARRDAFDIWGQGTMVTVSS
VL: DIQMTQSPSSLSASIGDRVTITCRASQNIIKYLNWYQQNAGKAPKLLIYTASSLQSGVPSRFSGSGSGTDFTLTISSLQPEDFATYYCQQSSSSPYTFGQGTKLEIK
modifications: human IgG1 Fc
For the molecule B4, the Kd was 3.37 nM in assay [1] (25° C.); 7.28 nM in assay [1] (37° C.); 1.67 nM in assay [2] (25° C.); 2.83 nM in assay [2] (37° C.); 0.607 nM in assay [3] (25° C.); 0.461 nM in assay [3] (37° C.). The T½ was 55 min in assay [1] (25° C.); 18 min in assay [1] (37° C.); 84 min in assay [2] (25° C.); 32 min in assay [2] (37° C.); 184 min in assay [3] (25° C.); 186 min in assay [3] (37° C.). The “% Internalization relative to Control I” value in assay [4] stood at 190.5%. Further, in assay [4], the “% Total Binding relative to Control I” value is recorded as 205.5%. Moreover, the half-maximal inhibitory concentration (IC50) in assay [5] was 0.627 nM. In assay [5], the “Percent Blocking at 100 nM Antibody” value is 100%.
